Laboratory results published in US8043804.

What was measured:
[1] = biological target: acetylated tubulin
[2] = biological target: acetylated p53, P04637
acetylated p53, P04637, sequence (P04637 whole entry, looked up): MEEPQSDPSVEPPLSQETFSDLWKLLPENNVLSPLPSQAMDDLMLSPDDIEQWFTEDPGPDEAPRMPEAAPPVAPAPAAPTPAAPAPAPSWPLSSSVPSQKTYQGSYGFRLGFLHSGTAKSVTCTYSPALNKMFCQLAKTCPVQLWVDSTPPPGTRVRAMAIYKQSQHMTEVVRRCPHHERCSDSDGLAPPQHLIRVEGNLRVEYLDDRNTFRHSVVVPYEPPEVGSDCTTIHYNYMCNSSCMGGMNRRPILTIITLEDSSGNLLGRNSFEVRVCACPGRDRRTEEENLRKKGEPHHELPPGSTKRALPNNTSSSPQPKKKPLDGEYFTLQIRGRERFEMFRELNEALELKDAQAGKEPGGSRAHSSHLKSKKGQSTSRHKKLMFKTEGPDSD

| Protein | in vitro deacetylation assay [1] | in vitro deacetylation assay (Western blot for acetylated p53) [2] |
| --- | --- | --- |
| Flag-SIRT2 (protein) MAEPDPSHPLETQAGKVQEAQDSDSDSEGGAAGGEADMDFLRNLFSQTLSLGSQKERLLDELTLEGVARYMQSERCRRVICLVGAGISTSAGIPDFRSPSTGLYDNLEKYHLPYPEAIFEISYFKKHPEPFFALAKELYPGQFKPTICHYFMRLLKDKGLLLRCYTQNIDTLERIAGLEQEDLVEAHGTFYTSHCVSASCRHEYPLSWMKEKIFSEVTPKCEDCQSLVKPDIVFFGESLPARFFSCMQSDFLKVDLLLVMGTSLQVQPFASLISKAPLSTPRLLINKEKAGQSDPFLGMIMGLGGGMDFDSKKAYRDVAWLGECDQGCLALAELLGWKKELEDLVRREHASIDAQSGAGVPNPSTSASPKKSPPPAKDEARTTEREKPQ | deacetylation of tubulin was observed when the purified SIRT2 protein was incubated with acetylated tubulin | – |
| Flag-SIRT1 (protein) MADEAALALQPGGSPSAAGADREAASSPAGEPLRKRPRRDGPGLERSPGEPGGAAPEREVPAAARGCPGAAAAALWREAEAEAAAAGGEQEAQATAAAGEGDNGPGLQGPSREPPLADNLYDEDDDDEGEEEEEAAAAAIGYRDNLLFGDEIITNGFHSCESDEEDRASHASSSDWTPRPRIGPYTFVQQHLMIGTDPRTILKDLLPETIPPPELDDMTLWQIVINILSEPPKRKKRKDINTIEDAVKLLQECKKIIVLTGAGVSVSCGIPDFRSRDGIYARLAVDFPDLPDPQAMFDIEYFRKDPRPFFKFAKEIYPGQFQPSLCHKFIALSDKEGKLLRNYTQNIDTLEQVAGIQRIIQCHGSFATASCLICKYKVDCEAVRGDIFNQVVPRCPRCPADEPLAIMKPEIVFFGENLPEQFHRAMKYDKDEVDLLIVIGSSLKVRPVALIPSSIPHEVPQILINREPLPHLHFDVELLGDCDVIINELCHRLGGEYAKLCCNPVKLSEITEKPPRTQKELAYLSELPPTPLHVSEDSSSPERTSPPDSSVIVTLLDQAAKSNDDLDVSESKGCMEEKPQEVQTSRNVESIAEQMENPDLKNVGSSTGEKNERTSVAGTVRKCWPNRVAKEQISRRLDGNQYLFLPPNRYIFHGAEVYSDSEDDVLSSSSCGSNSDSGTCQSPSLEEPMEDESEIEEFYNGLEDEPDVPERAGGAGFGTDGDDQEAINEAISVKQEVTDMNYPSNKS | – | deacetylation of p53 was observed when the Flag-SIRT1 protein was incubated with acetylated p53 |
